In patent US20230279105A1 (SINGLE CELL TECHNOLOGY, published 2023):

B1: SCT-Fa113 (antibody, V domains shown)
VH: QVQLQQPGAEFVKPGASVKLSCEASGNTFTSYWIQWVKQRPGQGLEWIGEIDPSDSYIDYNQKFKDKATLTVDTSSSTAYMHLSSLTSEDSAVYYCAREGAYSSPFAYWGQGTLVTVSA
VL: DILMTQSPSSMSVSLGDTISIICHASQDIRSNIGWLQQKPGKSFKGLIYHGSNLEDGVPSRFSGSGSGADYSLTISSLESEDFADYYCVQYIQFPRTFGGGTKVEIK
notes: murine IgG
B2: SCT-Fa118 (antibody, V domains shown)
VH: QVQLQQPGAELVKPGASVKLSCKASGYTFISYWMHWVKQRPGRGLEWIGRIDPNSGDTKYNEKFKSKATLTVDKPSSTAYMQLSSLISEDSAVYYCARWGWDAFAYWGQGTLVTVSA
VL: DAVMTQTPLSLPVSLGDQASISCRSSQSLENSDGNTYLNWYFQKTGQSPQLLIYRVSNRFSGVLDRFSGSGSGTDFTLKISRVEAEDLGVYFCLQVTHVPPTFGAGTKLELK
notes: murine IgG
B3: SCT-Fa127 (antibody, V domains shown)
VH: QVQLQQPGAELVMPGASVKLSCKASGYTFTTYWMHWVKQRPGQGLEWIGEIDPSDGYSNYNQNFKGKATLTVDKSSSTAYLQLSSLTSEDSAVYYCARNYGSNYVGYFDYWGQGTTLTVSS
VL: DIQMTQTTSSLSASLGDRVTISCRSSQDISNYLNWYQQKPDGTVKLLIYYTSRLHSGVPSSFSGSGSGTDYSLTISNLEQEDIATYFCQQANALPWTFGGGTKLEIK
notes: murine IgG
B4: SCT-Fa133 (antibody, V domains shown)
VH: QVQLQQPGAELVMSGASVKLSCKASGYTFTTYWMHWVRQRPGQGLEWIGEIDPSDSYSNNNQNFKAKATLTVDKSSSTAYMQLGSLTSEDSAVYYCARNYGSNYVGYFDYWGQGTTLTVSS
VL: DIQMTQSTSSLSASLGDRVTISCRASQDITNYLNWYQQKPDGTVKLLIYHTSRLHAGVPSRFSGSGSGTDYSLTISNLDQEDIATYFCQQGNALPWTFGGGTKLEIK
notes: murine IgG
B5: SCT-Fa125 (antibody, V domains shown)
VH: QVQLQQPGAELVMPGASVKLSCKASGYTFTSYWMHWVKQRPGQGLEWIGEIDPSDNYTNYNQKFKGKATLTVDGSSSTAYMQLSSLTSEDSAVYYCARNYGSNYVGYFDYWGQGTTLTVSS
VL: DIQMTQTTSSLSASLGDRVTISCRASQGISNYLNWYQQKPDGTVKLLIYYTSRFHSGVPSRFSGSGSGTDYSLTISNLEQEDIATYFCQQGNSLPWTFGGGTKLEIK
notes: murine IgG
B6: SCT-Fa128 (antibody, V domains shown)
VH: QVQLQQPGAELVMPGASVKLSCKASGYTFTTYWMHWVKQRPGQGLEWIGEIDPSDSYSNYNQKFKGKATLTVDKSSSTAYMQLSSLTSEDSAVYYCARNYGSNYVGYFDYWGQGTTLTVSS
VL: DIQLTQTTSSLSASLGDRVTINCRASQDISNYLNWYQQKPDGTVKLLIYYTSRLLSGVPSSFSGSGSGTDYSLTISSLEQEDIATYFCQQGKALPWTFGGGTKLEIK
notes: murine IgG
B7: SCT-Fa126 (antibody, V domains shown)
VH: QVQLQQPGAELVMPGASVKLSCKASGYTFTSYWMHWVKQRPGQGLEWIGEIDPSDSYSNYNQKFKGKATLTVDKSSSTAYMQLISLTSEDSAVYYCARNYGSNYVGYFDYWGQGTTLTVSS
VL: DIQMTQTTSSLSASLGDRVTISCRASQDISNYLNWYQQKPDGTVKLLIYYTSRLLSGVPSRFSGSGSGTDYSLTISNLEQEDIATYFCQQGNTLPWTFGGGTNLEIK
notes: murine IgG
B8: SCT-Fa131 (antibody, V domains shown)
VH: QVQLQQPGAELVMPGASVRLSCKTSGYTFSTYWMHWVKQRPGQGLEWIGEIDPSDSYTNYNQNFKGKATLTVDKSSSTAYMKLSSLTSEDSAVYYCARNYGSNYVGYFDYWGQGTTLTVSS
VL: DIQMTQTASSLSASLGDRVTISCRASQDINNYLNWYQQKPDGTVKLLIYYTSRLHSGVPSSFSGSGSGTDYSLTISNLEQEDIATYFCQQGNALPWTFSGGTKLEIK
notes: murine IgG
B9: SCT-Fa190 (antibody, V domains shown)
VH: QVQLRQPGAELVMPGASVKLSCKASGYTFNTYWMHWVKQRPGQGLEWIGEIDPSDSYTNYNQNFKGKATLTVDKSSSTAYLQLSSLTSEDSAVYYCARNYGSNYVGYFDYWGQGTTLTVSS
VL: DIQMTQTTSSLSASLGDRVTISCRASQDISNYLNWYQQKPDGTVKLLIYYTSRLPSGVPSSFSGSGSGTDYSLTISNLEQEDIATYFCQQAKALPWTFGGGTKLEIK
notes: murine IgG
B10: SCT-Fa132 (antibody, V domains shown)
VH: QVQLQQPGAELVMPRASVKLSCKASGYTFTSYWMHWVKQRPGQGLEWIGEIDPSDGYTNYNHKFKGKATLTVDKSSSTAYMQLSSLTSEDSAVYYCARNYGSNYVGYFDYWGQGTTLTVSS
VL: DIQMTQTTSSLSASLGDRVTISCRASQDISNYLNWYQQKRDGTVKLLIYYTSRFHSGVPSRFSGSGSGTDYSLTISNLEQEDIATYFCQQGNTLPWTFGGGTKLEIK
notes: murine IgG
B11: SCT-Fa123 (antibody, V domains shown)
VH: QVQLQQPGAELVMPGASVKLSCKASGYTFNTYWMHWVKQRPGQGLEWIGEIDPSDSYTNYNQNFNGKATLTVDKSSSTAYLQLSSLTSEDSAVYYCARNYGSNYVGYFDYWGQGTTLTVSS
VL: DIQMTQTTSSLSASLGDRVTISCRASQDISNYLNWYQQKPDGTVKLLIYYTSRLPSGVPSSFSGSGSGTDYSLTISNLEQEDIATYFCQQAKALPWTFGGGTKLEIK
notes: murine IgG
B12: SCT-Fa124 (antibody, V domains shown)
VH: QVQLQQPGAELVMPGASVKLSCKASGYTFSTYWMHWVKQRPGQGLEWIGEIDPSDSYTNYNQNFKGKATLTVDKSSSTAYMQLSSLTSEDSAVYYCARNYGSNYVGYFDHWGRGTTLTVSS
VL: DIQMTQTTSSLSASLGDRVTISCRASQDISNYLNWYQQKPDGTVKLLIYYTSRLHSGVPSSFSGSGSGTDYSLTISNLAQEDIATYFCQQGNALPWTFGGGTKLEIK
notes: murine IgG
B13: SCT-Fa130 (antibody, V domains shown)
VH: QVQLQQPGAELVMPGASVRLSCKASGYTFTTYWMHWVRQRPGQGLEWIGEIDPSDSYTNYNQNFKGKATLTVDKSSSTAYLQLSSLTSEDSAVYYCARNYGSNYVGYFDHWGQGTTLTVSS
VL: DIQMTQTTSSLSASLGDRVTISCRASQDISNYLNWYQQKPDGTVKLLIYYTSRLHSGVPSSFSGSGSGTDYSLTISNLEQEDIATYFCQQANALPWTFGGGTKLEIK
notes: murine IgG
B14: SCT-Fa122 (antibody, V domains shown)
VH: QVQLQQPGAELVMPGASVKLSCEASGYTFTTFWIHWVKQRPGQGLEWIGEIDPSDSYTNYNQNFKGKATLTVDKSSSTAYLQLSSLTSEDSAVYYCARNYGSNYVGYFDYWGQGTTLTVSS
VL: DIQMTQTTSSLSASLGDRVTISCRASQDISNYLNWYQQKPDGTVKLLIYYTSRLHSGVPSSFSGSGSGTDYSLTISNLEQEDIAIYFCQQANALPWTFGGGTKLEIK
notes: murine IgG
B15: SCT-Fa129 (antibody, V domains shown)
VH: QVQLQQPGAELVMPGASVKLSCKASGYTFTTYWMHWVKQRPGQGLEWIGEIDPSDSYTNYNQKFKGKATLTVDKSSSTAYMQLSSLTSEDSAVYYCARNYGSNYVGYFDYWGQGTTLTVSS
VL: DIQLTQTTSSLSASLGDRVTINCRASQDISNYLNWYQQKPDGTVKLLIYYTSRLLSGVPSSFSGSGSGTDYSLTISSLEQEDIATYFCQQGKALPWTFGGGTKLEIK
notes: murine IgG
B16: SCT-Fa111 (antibody, V domains shown)
VH: QVQLKQSGPGLVQPSQSLSITCTVSGFSLISYGVHWVRQSPGKGLEWLGIIWSGGNTDYNAAFISRLSISKDNSKSQVFFKLNSLQADDTAIYYCARTANALDYWGQGTSVTVSS
VL: DVLMTQTPLSLPVSLGDQASISCRSSQTIVHSNGNTYLEWYLQKPGQSPKLLIYKVSNRFSGVPDRFSGSGSGTDFTLKISRVEAEDLGVYYCFQGSHVPWTFGGGTKLEIK
notes: murine IgG
B17: SCT-Fa120 (antibody, V domains shown)
VH: QVQLQQPGAELVKPGASVKVSCKASGYSFISYWMYWVKQRPGQGLEWIGRIHPSDSDTNYNQKYKGKATLTVDRSSSTAYMQLSSLTSEDSAVYYCTISHYSGSSPETYWGQGTTLTVSS
VL: DVLMTQTPLSLPVSLGDQASISCRSSQSIVHSNGNTYLEWYLQKPGQSPKLLIYKVSNRFSGVPDRFSGSGSGTDFTLKISRVEAEDLGVYYCFQGSHVPYTFGGGTKLEIK
notes: murine IgG
B18: SCT-Fa121 (antibody, V domains shown)
VH: QVQLQQPGAELVKPGASVKVSCKASGYTFISHWMYWVRQRPGQGLEWIGRIHPSDSDTDYSQEFKGKATLTVDKSSSTAHMQLSSLTSEDSAVYYCAIWSYYYGSRLDYWGQGTTLTVSS
VL: DVLMTQAPPSLPVSLGDQASISCRSSQNIVHSNGNTYLEWYLQRPGQSPKLLIYKVSNRFSGVPDRFSGSGSGTDFTLKISRVEAEDLGVYYCCQGSHVPYTFGGGTKLEIK
notes: murine IgG
B19: SCT-Fa116 (antibody, V domains shown)
VH: QVQLQQPGAELVKPGASVKLSCKASGYSFISSWMEWVKQRPGQGLEWIGRIHPSDSDTNYNQKFKAKATLTVDKSSSTAYMQLSSLTSEDSAVYYCAIIHRGFYFAMDYWGQGTSVTVSS
VL: DVLMTQTPLSLPVSLGDQASISCRSSQSIVHSNGNTYLEWYLQKPGQSPKLLIYKVSNRFSGVPDRFSGSGSGTDFTLKISRVEAEDLGVYYCFQGSHVPWTFGGGTKLEIK
notes: murine IgG
B20: SCT-Fa119 (antibody, V domains shown)
VH: QVQLQQPGAELVKPGASVKVSCKASGYSFISSWMEWVKQRPGQGLEWIGRIHPSDSDTNYNQKFKGKATLTVDKSSSTAYMQLSSLTSEDSAVYYCAIIHRGFYFAMDYWGQGTSVTVSS
VL: DVLMTQTPLSLPVSLGDQASISCRSSQSIVHSNGNTYLEWYLQKPGQSPKLLIYKVSNRFSGVPDRFSGSGSGTDFTLKISRVEAEDLGVYYCFQGSHVPWTFGGGTKLEIK
notes: murine IgG
B21: SCT-Fa150 (antibody, V domains shown)
VH: QVQLQQPGAEVVKPGASVKVSCKASGYSFISHWMYWVRQRPGQGLEWIGRIHPSDSDTDYSQEFKGKATLTVDKSSSTAHMQLSSLTSEDSAVYYCAIWSYYYGTRLDYWGQGTTLTVSS
VL: DVLMTQTPPSLPVSLGDQASISCRSSQNIVHSNGNTYLEWYLQRPGQSPKLLIYKVSNRFSGVPDRFSGSGSGTDFTLKISRVEAEDLGVYYCCQGSHVPYTFGGGTKLEIK
notes: murine IgG

Biological target: T1, Human TIM-3 Human Fc tagged protein (human, fluorescently labeled with HiLyte Fluor 555 (sites not given))
T1 construct: Bought construct; also called TIM-3 protein tagged with human Fc; ACROBiosystems catalog no: TM3-H5258
Assay: capture slide probed with labeled TIM-3-Fc;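 also: IgG from single CD138-enriched plasma cells, isolated from lymphocytes, immobilized on a derivatized glass slide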

Binding result, binds:
B1, B2, B3, B4, B5, B6, B7, B8, B9, B10, B11, B12, B13, B14, B15, B16, B17, B18, B19, B20, B21
